Experiments:
Assay in all cases: holdup assay
Set-up in all cases: key: below the threshold = too weak to quantify, mostly under pKd 3.1 to 4
TJP2_1, Q9UDY2 = biological target: TJP2_1, Q9UDY2
LNX2_2, Q8N448 = biological target: T1, LNX2_2, Q8N448
T1 sequence (Q8N448 334-432, limits assumed, looked up): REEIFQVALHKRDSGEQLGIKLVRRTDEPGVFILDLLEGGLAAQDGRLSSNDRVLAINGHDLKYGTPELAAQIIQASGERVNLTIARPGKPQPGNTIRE

ARHGAP21, Q5T5U3 = biological target: T2, ARHGAP21, Q5T5U3
T2 sequence (Q5T5U3 45-169, limits assumed, looked up): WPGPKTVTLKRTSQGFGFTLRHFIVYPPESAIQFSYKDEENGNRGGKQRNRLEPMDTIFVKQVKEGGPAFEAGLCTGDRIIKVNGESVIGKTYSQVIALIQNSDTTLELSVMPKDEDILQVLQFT

APBA1_1, Q02410 = biological target: T3, APBA1_1, Q02410
T3 sequence (Q02410 651-752, limits assumed, looked up): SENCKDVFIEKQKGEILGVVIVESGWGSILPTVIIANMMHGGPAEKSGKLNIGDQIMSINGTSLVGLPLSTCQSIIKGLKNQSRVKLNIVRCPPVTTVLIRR

MPP6, Q9NZW5 = biological target: T4, MPP6, Q9NZW5
T4 sequence (Q9NZW5 125-219, limits assumed, looked up): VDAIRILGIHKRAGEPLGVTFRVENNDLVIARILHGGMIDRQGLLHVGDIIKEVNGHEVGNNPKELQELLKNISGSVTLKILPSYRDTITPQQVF

PICK1, Q9NRD5 = biological target: PICK1, Q9NRD5
PICK1, Q9NRD5, sequence (Q9NRD5 17-115): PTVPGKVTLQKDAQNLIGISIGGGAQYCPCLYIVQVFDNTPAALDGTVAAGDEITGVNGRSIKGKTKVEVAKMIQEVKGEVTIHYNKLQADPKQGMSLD

APBA1_2, Q02410 = biological target: T5, APBA1_2, Q02410
T5 sequence (Q02410 742-832, limits assumed, looked up): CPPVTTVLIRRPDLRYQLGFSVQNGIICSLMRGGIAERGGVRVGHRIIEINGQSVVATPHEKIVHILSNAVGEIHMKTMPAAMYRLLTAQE

NOS1, P29475 = biological target: NOS1, P29475
NOS1, P29475, sequence (P29475 9-101): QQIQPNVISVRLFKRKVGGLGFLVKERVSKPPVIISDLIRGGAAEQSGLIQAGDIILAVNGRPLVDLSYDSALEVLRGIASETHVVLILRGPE

RAPGEF6, Q8TEU7 = biological target: T6, RAPGEF6, Q8TEU7
T6 sequence (Q8TEU7 525-625, limits assumed, looked up): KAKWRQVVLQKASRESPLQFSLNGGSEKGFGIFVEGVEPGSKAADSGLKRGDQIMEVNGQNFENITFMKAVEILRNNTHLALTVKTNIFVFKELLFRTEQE

Inadl_2, Q8NI35 = biological target: Inadl_2, Q8NI35
Inadl_2, Q8NI35, sequence (Q8NI35 238-335): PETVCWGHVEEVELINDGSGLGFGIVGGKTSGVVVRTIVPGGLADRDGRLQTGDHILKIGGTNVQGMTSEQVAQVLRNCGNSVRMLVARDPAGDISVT

Inadl_9, Q8NI35 = biological target: Inadl_9, Q8NI35
Inadl_9, Q8NI35, sequence (Q8NI35 1530-1615): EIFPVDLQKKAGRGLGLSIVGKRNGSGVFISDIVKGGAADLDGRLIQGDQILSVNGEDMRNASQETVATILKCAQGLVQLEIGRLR

MAGI1_1, Q96QZ7 = biological target: MAGI1_1, Q96QZ7
MAGI1_1, Q96QZ7, sequence (Q96QZ7 1-106): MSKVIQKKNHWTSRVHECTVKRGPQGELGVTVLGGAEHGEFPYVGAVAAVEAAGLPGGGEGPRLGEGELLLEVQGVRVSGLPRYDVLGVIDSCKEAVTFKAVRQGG

NHERF4_4, Q86UT5 = biological target: NHERF4_4, Q86UT5
NHERF4_4, Q86UT5, sequence (Q86UT5 464-550): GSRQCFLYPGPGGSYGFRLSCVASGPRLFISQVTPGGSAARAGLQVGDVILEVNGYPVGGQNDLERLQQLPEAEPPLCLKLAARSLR

SNTB1, Q13884 = biological target: T7, SNTB1, Q13884
T7 sequence (Q13884 107-205, limits assumed, looked up): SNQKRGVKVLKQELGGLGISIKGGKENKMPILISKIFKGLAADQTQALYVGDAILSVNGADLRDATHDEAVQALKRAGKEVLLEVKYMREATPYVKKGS

NHERF2_2, Q15599 = biological target: NHERF2_2, Q15599
NHERF2_2, Q15599, sequence (Q15599 142-238): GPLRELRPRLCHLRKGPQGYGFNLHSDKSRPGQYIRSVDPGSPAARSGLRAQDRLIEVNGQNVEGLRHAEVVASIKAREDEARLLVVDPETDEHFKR

GRASP, Q7Z6J2 = biological target: GRASP, Q7Z6J2
GRASP, Q7Z6J2, sequence (Q7Z6J2 96-193): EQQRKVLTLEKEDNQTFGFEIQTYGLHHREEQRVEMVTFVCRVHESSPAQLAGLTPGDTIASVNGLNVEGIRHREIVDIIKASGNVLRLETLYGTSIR

LIN7A, O14910 = biological target: T8, LIN7A, O14910
T8 sequence (O14910 103-200, limits assumed, looked up): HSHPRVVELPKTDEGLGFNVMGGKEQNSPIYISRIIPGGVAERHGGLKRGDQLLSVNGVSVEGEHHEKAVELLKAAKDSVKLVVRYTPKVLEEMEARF

NHERF4_1, Q86UT5-2 = biological target: NHERF4_1, Q86UT5-2
NHERF4_1, Q86UT5-2, sequence (Q86UT5 other isoform, or with tags, fused parts or gaps): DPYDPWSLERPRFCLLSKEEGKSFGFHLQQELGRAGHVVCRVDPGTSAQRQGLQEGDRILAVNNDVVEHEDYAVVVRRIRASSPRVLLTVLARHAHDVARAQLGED

HTRA4, P83105 = biological target: T9, HTRA4, P83105
T9 sequence (P83105 378-476, limits assumed, looked up): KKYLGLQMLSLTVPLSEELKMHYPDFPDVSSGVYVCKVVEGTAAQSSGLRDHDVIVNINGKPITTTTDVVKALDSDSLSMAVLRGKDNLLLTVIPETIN

GRID2IP_1, A4D2P6 = biological target: GRID2IP_1, A4D2P6
GRID2IP_1, A4D2P6, sequence (A4D2P6 1-87): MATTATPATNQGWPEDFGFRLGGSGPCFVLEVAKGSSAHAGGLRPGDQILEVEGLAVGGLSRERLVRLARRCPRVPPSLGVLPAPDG

DLG4_1, P78352 = biological target: DLG4_1, P78352
DLG4_1, P78352, sequence (P78352 62-152): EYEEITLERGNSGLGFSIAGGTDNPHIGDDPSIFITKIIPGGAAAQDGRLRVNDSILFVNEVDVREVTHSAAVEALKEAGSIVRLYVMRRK

GRIP1_7, Q9Y3R0 = biological target: T10, GRIP1_7, Q9Y3R0
T10 sequence (Q9Y3R0 999-1096, limits assumed, looked up): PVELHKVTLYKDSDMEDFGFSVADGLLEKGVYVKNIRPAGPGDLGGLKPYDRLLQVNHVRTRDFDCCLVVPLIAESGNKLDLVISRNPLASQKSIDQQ

DLG3_3, Q92796 = biological target: T11, DLG3_3, Q92796
T11 sequence (Q92796 374-475, limits assumed, looked up): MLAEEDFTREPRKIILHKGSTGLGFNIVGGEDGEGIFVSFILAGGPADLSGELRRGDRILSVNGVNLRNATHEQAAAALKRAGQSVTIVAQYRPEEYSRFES

TJP1_3, Q07157 = biological target: TJP1_3, Q07157
TJP1_3, Q07157, sequence (Q07157 416-512): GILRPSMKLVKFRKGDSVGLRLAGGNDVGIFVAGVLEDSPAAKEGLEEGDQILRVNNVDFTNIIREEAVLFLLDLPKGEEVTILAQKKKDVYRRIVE

TJP3_3, O95049 = biological target: T12, TJP3_3, O95049
T12 sequence (O95049 375-456, limits assumed, looked up): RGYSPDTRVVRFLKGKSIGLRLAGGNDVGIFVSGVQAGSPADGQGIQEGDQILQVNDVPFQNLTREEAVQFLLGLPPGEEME

[1] = plain residues with an end cap or a label only (N-terminal biotin on a linker: ado-ado)
[2] = modified: acetyl on K at position -1 from the C-terminal residue

Measured: pKd

TJP2_1, Q9UDY2, sequence (Q9UDY2 24-128): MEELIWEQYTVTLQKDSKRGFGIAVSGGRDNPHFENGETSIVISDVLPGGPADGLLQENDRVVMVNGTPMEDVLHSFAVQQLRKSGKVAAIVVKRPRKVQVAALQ

LETREPTNTL [GRIP1, Q9Y3R0]
below the threshold: TJP2_1, Q9UDY2; [1] | LNX2_2, Q8N448; [1] | APBA1_1, Q02410; [1] | PICK1, Q9NRD5; [1] | APBA1_2, Q02410; [1] | NOS1, P29475; [1] | RAPGEF6, Q8TEU7; [1] | Inadl_2, Q8NI35; [1] | Inadl_9, Q8NI35; [1] | MAGI1_1, Q96QZ7; [1] | NHERF4_4, Q86UT5; [1] | SNTB1, Q13884; [1] | NHERF2_2, Q15599; [1] | GRASP, Q7Z6J2; [1] | LIN7A, O14910; [1] | NHERF4_1, Q86UT5-2; [1] | HTRA4, P83105; [1] | GRID2IP_1, A4D2P6; [1] | DLG4_1, P78352; [1] | GRIP1_7, Q9Y3R0; [1] | DLG3_3, Q92796; [1] | TJP1_3, Q07157; [1] | TJP3_3, O95049; [1]
3.61: MPP6, Q9NZW5; [1]
4.04: ARHGAP21, Q5T5U3; [1]

DEDQHTQITKV [PTEN_Ac, P60484]
5.32: GRASP, Q7Z6J2; [2]
5.03: LNX2_2, Q8N448; [2]
3.68: HTRA4, P83105; [2]
3.67: Inadl_9, Q8NI35; [2]
4.26: APBA1_2, Q02410; [2]
below the threshold: ARHGAP21, Q5T5U3; [2] | APBA1_1, Q02410; [2] | MPP6, Q9NZW5; [2] | RAPGEF6, Q8TEU7; [2] | MAGI1_1, Q96QZ7; [2] | NHERF4_4, Q86UT5; [2] | LIN7A, O14910; [2] | NHERF4_1, Q86UT5-2; [2] | GRID2IP_1, A4D2P6; [2] | GRIP1_7, Q9Y3R0; [2] | DLG3_3, Q92796; [2] | TJP1_3, Q07157; [2] | TJP3_3, O95049; [2]
3.96: TJP2_1, Q9UDY2; [2]
3.81: NOS1, P29475; [2]
3.75: PICK1, Q9NRD5; [2]
4.79: SNTB1, Q13884; [2]
3.77: NHERF2_2, Q15599; [2]
3.6: Inadl_2, Q8NI35; [2]
3.98: DLG4_1, P78352; [2]

RALRASESGI [ADGRE5, P48960]
3.59: MPP6, Q9NZW5; [1]
4.03: ARHGAP21, Q5T5U3; [1]
3.62: HTRA4, P83105; [1]
below the threshold: TJP2_1, Q9UDY2; [1] | LNX2_2, Q8N448; [1] | APBA1_1, Q02410; [1] | PICK1, Q9NRD5; [1] | APBA1_2, Q02410; [1] | NOS1, P29475; [1] | RAPGEF6, Q8TEU7; [1] | Inadl_2, Q8NI35; [1] | Inadl_9, Q8NI35; [1] | MAGI1_1, Q96QZ7; [1] | NHERF4_4, Q86UT5; [1] | SNTB1, Q13884; [1] | NHERF2_2, Q15599; [1] | GRASP, Q7Z6J2; [1] | LIN7A, O14910; [1] | NHERF4_1, Q86UT5-2; [1] | GRID2IP_1, A4D2P6; [1] | DLG4_1, P78352; [1] | GRIP1_7, Q9Y3R0; [1] | DLG3_3, Q92796; [1] | TJP1_3, Q07157; [1] | TJP3_3, O95049; [1]
